A value given as a limit tells only on which side of the number the result lay.

One assay addresses HLA-A*02:01. The assay is described as follows: IEDB peptide-MHC binding, purified MHC/competitive/radioactivity; ≥ and ≤ were set here for values at or beyond the usual limits of such assays. Particulars: source organism: Bordetella pertussis.
For the sequence GKLPKPVTV, the IC50 was found to be 69.4 µM.

The target in a further assay is HLA-B*07:02. Described as above. The settings on record: source organism: Bordetella pertussis.
Consider KPAPQPGPQ, for which the IC50 was 31.7 µM.

As to PPRPVAAQV, the half-maximal inhibitory concentration (IC50) came to 17.8 µM. On the same count and under the same terms, for KDYRDKDGG the value was 69.6 µM.

In the case of FVRDGQSVI, the half-inhibitory concentration (IC50) stood at 5.56 µM.

In another assay the target is HLA-B*35:01. The assay is described as above. The settings on record: source organism: Bordetella pertussis.
With LPVRGVALV, the 50% inhibitory concentration (IC50) was found to be 69.9 µM. FAILSSTTE: the IC50 is 69.9 µM. KPAPTAPPM: the half-inhibitory concentration (IC50) worked out at 0.019 µM.

The target of the next assay is HLA-B*44:03. The assay is described as above. The settings on record: source organism: Bordetella pertussis.
On to AEHGEVSIQ, for which the IC50 was determined as 2.88 µM. Same read-out and setting: for KEAATIVAA the value was 15 µM; for SESHNFHAS, 32.7 µM; for AEVKVGYRA, 2.36 µM.

In a further assay the target is HLA-B*53:01. Described as above. The settings on record: source organism: Bordetella pertussis.
Consider EPQAELAVF, for which the IC50 is 4.52 µM. As for GGVPGGAVP, the 50% inhibitory concentration (IC50) turned out to be 26.7 µM. On the same count and under the same terms, in the case of LPVRGVALV it was at least 78.2 µM; in that of ESYSESHNF, 6.27 µM. Still for that read-out and setting: in the case of FAILSSTTE it was 47.1 µM. Consider GAVPGGAVP, for which the concentration for half-maximal inhibition (IC50) amounted to 69.9 µM. Regarding DATFETYAL, the IC50 turned out to be 4.9 µM.

For another assay, the target named is HLA-B*57:01. Described as above. Particulars: source organism: Bordetella pertussis.
Take YLRQITPGW: the IC50 was found to be 1.54 µM. In the case of VALASQARW, the half-inhibitory concentration (IC50) amounted to 0.188 µM.

By IC50 is commonly meant the point on the concentration scale where inhibition reaches its midpoint.

Values taken from the Immune Epitope Database (IEDB).
